The values that follow are results of earlier work, collected in patent US20060166927A1, “Compounds that bind to the interferon-gamma, preparation method thereof and medicaments containing same” (priority 2002, published 2006).

B1: γ-IFN: polypeptide comprising, for example, 143 amino acids in humans, which is part of the cytokine family (protein, UniProt P01579 24-161, looked up)
Interferon gamma: QDPYVKEAENLKKYFNAGHSDVADNGTLFLGILKNWKEESDRKIMQSQIVSFYFKLFKNFKDDQSIQKSVETIKEDMNVKFFNSNKKKRDDFEKLTNYSVTDLNVQRKAIHELIQVMAELSPAAKTGKRKRSQMLFRG
In the case of B1, the “proportion of injected γ-IFN rapidly bound by molecules of heparin/heparan sulphate type” value (at the surface of the vascular endothelium) is listed as “approximately 90%”. In addition, under “intravenous injection, during the first 5 to 10 minutes”, the “cytokine disappearing from the circulating blood” value is reported as 90%. Also, for the setting “intravenous injection, first phase of biexponential elimination”, the half-life time was roughly 1 min. Besides, the inactivation in vivo entry (γ-IFN alone) is “rapidly inactivated by proteolytic degradation of its C-terminal end”.
